Experimental data from the supplement of paper PMC10126150.
± gives the standard deviation of the averaged measurements.

test system: ATP; experiment: switch fluorescence ratio, 500 uM ATP over buffer (Cy3 cluster intensity, sum of 5 cycles each) (fold (ratio)); higher = stronger signal-on switching upon ATP binding; sequences stand for … in TCGTCGGCAGCGTCAGATGTGTATAAGAGACAGTTTTTTTTTTTTTTTTTTTTTTTTT…TC; conditions: aptamer strand: ATP DNA aptamer (quencher-CACCTGGGGGAGTATTGCGGAGGAAGG + anchor), 100 nM annealed; ATP concentration: 500 uM
In short: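 The quencher-labelled ATP aptamer, at 100 nM, was annealed to Cy3-labelled switching-strand clusters on a modified Illumina MiSeq flow-cell. The clusters were imaged in selection buffer, then after 15 min with 500 uM ATP at 22 °C, and this buffer/ATP cycle ran five times with NaOH stripping and re-annealing between runs. Per-cluster fluorescence ratios, summed target-cycle over summed buffer-cycle Cy3 intensity, were averaged per switch-domain sequence. Clusters outside 100-1000 RFU were excluded.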
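Further: ATP exposure 15 min at 22 °C before imaging.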

In order of rising switch fluorescence ratio:
1. AGGTTGATGG  0.954 ± 0.043
2. AGGTTAGTGT  0.9584 ± 0.001
3. AGGTTGAAAA  0.963 ± 0.032
4. AGTAGCAGCG  0.963 ± 0.04
5. AGTAAAATAG  0.968 ± 0.017
6. AGGTTGTTAT  0.969 ± 0.013
7. AGGTTCTTTG  0.974 ± 0.026
8. AGGTGTTCGG  0.976 ± 0.019
9. AGGTTGGAGG  0.976 ± 0.018
10. AGGTCTGGGC  0.978 ± 0.074
11. AGTAGCGGGT  0.981 ± 0.026
12. AGGTCTGTGG  0.982 ± 0.04
13. AGGTTTTTGT  0.982 ± 0.036
14. AGTACGGGGT  0.982 ± 0.031
15. AGGTGAAAGT  0.983 ± 0.029
16. AGGTATTGCT  0.9854 ± 0.0091
17. AGTAGATTTT  0.986 ± 0.04
18. AGGTAATATG  0.9867 ± 0.0081
19. AGTAATTTGT  0.988 ± 0.019
20. AGTAAATTCT  0.9887 ± 0.0015
21. AGGTGAGGGG  0.99 ± 0.022
22. AGGTTAAGAC  0.99 ± 0.044
23. AGTAGGTAAT  0.9902 ± 0.0071
24. AGGTTGGAGA  0.992 ± 0.023
25. AGGTCCCGTT  0.993 ± 0.036
26. AGGTGACGG  0.993 ± 0.058
27. AGGTTTAGTT  0.993 ± 0.0065
28. AGGTTTATTG  0.993 ± 0.0097
29. AGGTTTTTTT  0.993 ± 0.017
30. AGGTTCCTGT  0.9944 ± 0.0091
31. AGTAGTATAT  0.994 ± 0.03
32. AGGTAGGTTC  0.995 ± 0.019
33. AGGTTTGTGA  0.995 ± 0.029
34. AGTAGGGCGT  0.9964 ± 0.0088
35. AGGTAGATAA  0.99834 ± 0.00052
36. AGGTAGGTCC  0.998 ± 0.022
37. AGGTCAGTTA  0.998 ± 0.028
38. AGGTTAGGGG  0.998 ± 0.037
39. AGTAGGGCAG  0.9976 ± 0.006
40. AGGTAACTGG  1.001 ± 0.00096
41. AGGTAGGGCT  1 ± 0.029
42. AGGTATGTTT  1 ± 0.068
43. AGGTCCCAGC  1 ± 0.02
44. AGGTTAAAGG  1 ± 0.016
45. AGGTTCGGCG  1 ± 0.015
46. AGTAAGGGTT  1 ± 0.048
47. AGTAGGGAAA  1 ± 0.033
48. AGTAGGGCGA  1 ± 0.092
49. AGGTAAATTG  1.01 ± 0.015
50. AGGTAATCAT  1.01 ± 0.05
51. AGGTAATGTT  1.01 ± 0.021
52. AGGTAGGGGA  1.01 ± 0.041
53. AGGTATCCCT  1.01 ± 0.022
54. AGGTCTATTT  1.008 ± 0.0024
55. AGGTGAAGCC  1.01 ± 0.038
56. AGGTGCGGAA  1.0109 ± 0.00064
57. AGGTGCGGGG  1.01 ± 0.042
58. AGGTGGGGGG  1.01 ± 0.043
59. AGGTGGGTTG  1.01 ± 0.055
60. AGGTGTGGGT  1.01 ± 0.037
61. AGGTGTTTAC  1.01 ± 0.011
62. AGGTTAAGGT  1.01 ± 0.02
63. AGGTTAATTT  1.01 ± 0.046
64. AGGTTCGTAT  1.01 ± 0.03
65. AGGTTGTGGT  1.01 ± 0.016
66. AGGTTTAGAC  1.01 ± 0.021
67. AGGTTTATGT  1.0099 ± 0.00068
68. AGGTTTGCGG  1.011 ± 0.0037
69. AGGTTTTAGT  1.013 ± 0.005
70. AGGTTTTTAA  1.01 ± 0.043
71. AGTACTCTGT  1.01 ± 0.039
72. AGTAGGACTC  1.01 ± 0.013
73. AGTAGGGCTT  1.01 ± 0.039
74. AGTAGGGGAG  1.01 ± 0.028
75. AGTAGGGGTG  1.01 ± 0.032
76. AGTAGTAAGA  1.01 ± 0.022
77. AGGTTCAGTC  1.02 ± 0.022
78. AGGTTGGAGT  1.02 ± 0.04
79. AGGTTTTTGC  1.02 ± 0.02
80. AGTACAGGCG  1.024 ± 0.0097
81. AGTAGCGGGA  1.02 ± 0.024
82. AGTAGTATTT  1.017 ± 0.0014
83. AGGTAGAAGT  1.03 ± 0.012
84. AGGTGGCGTC  1.03 ± 0.027
85. AGGTTATAGT  1.03 ± 0.051
86. AGGTTTAGGG  1.03 ± 0.034
87. AGTACTTGCC  1.03 ± 0.016
88. AGGTAGTATT  1.04 ± 0.012
89. AGGTGACTCG  1.04 ± 0.017
90. AGGTGATTCT  1.04 ± 0.025
91. AGGTTTGGGG  1.04 ± 0.033
92. AGTAGGTG  1.05 ± 0.04
93. AGTAATGGGA  1.06 ± 0.064
94. AGGTCGGTGG  1.07 ± 0.11
95. AGGTTTGGAC  1.09 ± 0.17
96. AGTACGATAT  1.14 ± 0.025
97. AGTACGAGCC  1.186 ± 0.0026
98. AGGTTAAAAC  1.2 ± 0.19
99. AGGTCCAGGT  1.262 ± 0.0015
100. AGGTCAGGTG  3.06 ± 0.33
